Entries after “also recorded” stand apart in the source; their conditions may differ.
Tests used:
Format in all cases: biochemical
mouse IgG2b = mouse IgG2b (Mus musculus, UniProt P01867); assay: Immunoglobulin specificity on SDS-PAGE: mouse IgG2b; conditions: 37° C., listed as IdeSork2.0
Experimental: (§1) FIG. 3. Specificity of IdeSork2.0. IdeSork2.0 was mixed with different antibodies and incubated o/n at 37° C. before analysis on SDS-PAGE. The enzyme itself is noted with an arrow. […] Mouse IgG1, mouse IgG2b and human IgA were not affected by IdeSork2.0.
(§2) Various antibodies and antibody based therapeutics were incubated with Xork, IdeS, or IdeZ (1:40 ratio) for 1 hour at 37° C. in PBS, with substrate concentrations ranging between 2-5 mg/mL, before being analyzed on SDS-PAGE. For kinetic studies, a substrate level of 2-200 μM IVIG was used during 10 min at 37° C. before being analyzed on a UHPLC system.

human IgG = assay: Immunoglobulin specificity on SDS-PAGE: human IgG and IgG Fc fusion proteins; conditions: for Hydrolysis of human IgG and IgG Fc fusion proteins: incubated with different antibodies at 37° C., SDS-PAGE
Experimental: as §1, §2

sheep IgG = assay: Immunoglobulin specificity on SDS-PAGE: sheep IgG; conditions: o/n at 37° C.
Experimental: (§3) FIG. 11. Specificity of IdeSork2.0. IdeSork2.0 was mixed with different antibodies and incubated o/n at 37° C. before analysis on SDS-PAGE.
as §2

mouse IgG2a = mouse IgG2a (Mus musculus, UniProt P01863); assay: Immunoglobulin specificity on SDS-PAGE: mouse IgG2a; conditions: 37° C.
Chain of mouse IgG2a (P01863 whole entry): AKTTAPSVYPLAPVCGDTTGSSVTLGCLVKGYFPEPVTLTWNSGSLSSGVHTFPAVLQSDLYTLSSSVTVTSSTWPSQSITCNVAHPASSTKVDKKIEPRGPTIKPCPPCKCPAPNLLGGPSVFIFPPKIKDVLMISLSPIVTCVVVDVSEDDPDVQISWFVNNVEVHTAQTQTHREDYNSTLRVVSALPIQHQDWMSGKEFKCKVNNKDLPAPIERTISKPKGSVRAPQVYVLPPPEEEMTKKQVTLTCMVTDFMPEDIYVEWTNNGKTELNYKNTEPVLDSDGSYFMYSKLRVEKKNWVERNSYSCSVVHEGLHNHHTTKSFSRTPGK
Experimental: as §1, §2

[1] = test system: denatured and reduced IgG; assay: Activity on denatured and reduced IgG; conditions: urea-denatured and reduced IgG, E:S 1:10, 5 hours at 37° C.
Experimental: FIG. 17. Denatured IgG was incubated with IgG hydrolases to investigate the necessity of a conserved 3D structure of the substrate for the enzymes to exert their function.
IgG that had been urea-denatured and reduced was incubated with IgG-specific enzymes at an E: S ratio of 1:10, incubating for 5 hours at 37° C. before analysis on SDS-PAGE.

rat IgG = assay: Immunoglobulin specificity on SDS-PAGE: rat IgG; conditions: o/n at 37° C.
Experimental: as §3, §2

IgG [2] = assay: Time-dose assays (enzyme:substrate ratio, time)
Experimental: FIG. 8. IdeSork2.0 enzyme: substrate ratio. The impact of enzyme and substrate concentration for the reaction speed was investigated using a Box-Behnken experimental setting, also analyzing the impact of time for the reaction speed. Output was measured as percentage hydrolysis of IgG (top left figure), as well as quantity hydrolyzed IgG per unit enzyme (all other figures).
FIG. 9. IdeSork2.0 enzyme: substrate activity over time. To verify the impact of modifying the enzyme: substrate ratio, an experiment with varying amounts of substrate (5-40 μg) to a set amount of enzyme (1 μg) was conducted over time (30, 60, and 120 min).
To investigate the impact of substrate and enzyme concentration, as well as time needed to complete (>95% hydrolysis) a reaction, a new Box-Behnken assay was designed (FIG. 8). The data was supported by traditional assays, with similar results (FIG. 9). IdeSORK2.0 quite rapidly hydrolyzes the vast majority of the material, but needs a longer time to finish hydrolysis of the last percentages of intact IgG, similar to other immunoglobulin proteases. A ratio of 1:40 hydrolyzes >95% of IgG in 30-60 minutes.
To better understand the optimal conditions needed for the enzyme to exert its activity, a Box-Behnken design was employed for the experiment. Addition of NaCl (0-400 mM), pH (5.5-8.5), [enzyme], [substrate], time, and temperature were parameters investigated. […]

human IgA = assay: Immunoglobulin specificity on SDS-PAGE: human IgA; conditions: 37° C.
Experimental: as §1, §2

[3] = test system: human IgG1 hinge/CH2 region; assay: Site of hydrolysis by IdeSORK2.0, LC-MS; conditions: IgG1, IgG2, fusion proteins, LALA-mutated IgG
Experimental: FIG. 5. IdeSork2.0 hydrolyses the hinge of IgG at an identical site as IdeS. Commercial and non-commercial biologics were hydrolyzed with IdeSork2.0 and hydrolysis products were analyzed using LC-MS.
Several substrates (IgG1, IgG2, fusion proteins, LALA-mutated IgG) were subjected to hydrolysis by IdeSORK2.0 and the site of hydrolysis identified through LC-MS. […] This is the same site that is recognized by IdeS. The site of hydrolysis has been confirmed for etanercept, trastuzumab, cetuximab, as well as two non-commercial monoclonal antibodies.
Subunit fragments were denatured and reduced followed by reversed phase LC-MS analysis. Separation was achieved using a BioResolve RP mAb Polyphenol, 450 Å, 2.7 μm 2.1×100 mm, Waters (0.1% formic acid in water and 0.1% formic acid in 95% acetonitrile as mobile phases) and run on an Agilent 1260/1290 UHPLC system coupled to a Bruker Impact II QTOF mass spectrometer. The obtained data was evaluated in Bruker Compass DataAnalysis software using the MaxEnt algorithm for deconvolution and SNAP algorithm for determination of the monoisotopic molecular weights.

IgG [4] = assay: Optimal conditions, Box-Behnken design (pH, NaCl, temperature)
Experimental: FIG. 7. IdeSork2.0 optimal conditions. The optimal buffer composition for IdeSork2.0 was determined using a Box-Behnken experimental design, measuring the impact of pH, NaCl and temperature. Output was measures as percentage hydrolysis of IgG.
The optimal conditions for IdeSORK2.0 were assessed using a Box-Behnken experimental design to assess multiple factors and their inter-dependence. […] The enzymatic reaction is mainly driven by the substrate concentration (high concentration favours the reaction), while the enzyme concentration is secondary. This can also be seen as a low percentage IgG not being readily hydrolyzed even after a pro-longed incubation (FIG. 9).
To better understand the optimal conditions needed for the enzyme to exert its activity, a Box-Behnken design was employed for the experiment. Addition of NaCl (0-400 mM), pH (5.5-8.5), [enzyme], [substrate], time, and temperature were parameters investigated. Unless otherwise noted, all experiments were conducted in TBS at an enzyme: substrate ratio of 1:20, for 1 hour at 37° C.

cow IgG = assay: Immunoglobulin specificity on SDS-PAGE: cow IgG
Experimental: as §2

pig IgG = assay: Immunoglobulin specificity on SDS-PAGE: pig IgG; conditions: o/n at 37° C.
Experimental: as §3, §2

dog IgG = assay: Immunoglobulin specificity on SDS-PAGE: dog IgG; conditions: o/n at 37° C.
Experimental: as §3, §2

mouse IgG1 = mouse IgG1 (Mus musculus, UniProt P01868); assay: Immunoglobulin specificity on SDS-PAGE: mouse IgG1; conditions: 37° C., listed as IdeSork2.0
Experimental: as §1, §2

Chain of mouse IgG2b (P01867 1-335 isoform P01867-2): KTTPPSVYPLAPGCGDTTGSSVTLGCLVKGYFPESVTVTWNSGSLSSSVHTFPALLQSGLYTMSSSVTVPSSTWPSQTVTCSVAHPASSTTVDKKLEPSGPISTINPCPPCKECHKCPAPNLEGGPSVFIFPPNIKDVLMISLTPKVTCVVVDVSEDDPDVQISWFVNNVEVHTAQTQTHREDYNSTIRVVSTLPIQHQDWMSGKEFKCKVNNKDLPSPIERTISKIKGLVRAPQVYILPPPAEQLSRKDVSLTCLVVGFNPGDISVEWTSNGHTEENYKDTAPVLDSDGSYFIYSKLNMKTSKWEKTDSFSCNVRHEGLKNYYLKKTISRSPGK

B1: IdeSORK2.0: SEQ ID NO: 2 (N terminal 312 amino acids of IdeSORK) with added N terminal methionine and C-terminal His6; 319 amino acids (protein)
chain: MSKRKLLKKIEKKDTSSVLTQKKQTKTLWADGVQVDDKDFKPSTENFGTNYLAAEYGIGKGYYDINKKFDGTDDDLCSGVVAANQLHWWLDRNKDYIEKYRQQSKDNGVTIGNTDIFELNKLHDEDQSNFFDFIKKSFGNKFLQPERLLNMYINGYGYLTSQDKAKTSQPSPSKLNFFQKVFKNNLLTDKTPINDIDEFSSQTKNALQNHKVLAVSFASIKNRGLGHVVTVWGADFDENGKVVALYVTDSDDRSKNIGNAKLGMKKLRIEVSAQDSSTIKLTGFEDKNSGGSLRHLYSLSTGEQIWKKYFEETHHHHHH
modifications: (IdeSORK2.0) Protein of SEQ ID NO 2 engineered to include an additional N terminal methionine and a C-terminal protein purification tag - His6
In the case of B1, the “Activity towards mouse IgG2b” value (mouse IgG2b) is reported as “not affected”, the “Hydrolysis of monoclonal IgG4” value (human IgG) is reported as “can also hydrolyze” and the “Hydrolysis of polyclonal IgG (e.g. IVIG)” value (human IgG) is reported as “near complete hydrolysis”. The “Preference between human IgG subclasses” value (human IgG; IgG1 versus IgG2) was “slight preference for IgG1 over IgG2”, the “Effect of alterations of the hinge region (e.g. LALA-sequence) on activity” value (human IgG; human antibodies with altered hinge) was “did not affect the activity” and the “Hydrolysis of human IgG and IgG Fc fusion proteins” value (human IgG) was “hydrolyzing all tested human IgGs and IgG Fc fusion proteins”. For the same molecule, the “Hydrolysis of human IgG and IgG Fc fusion proteins” value (human IgG; listed as IdeSork2.0) was “hydrolyzed”, the “Activity on sheep IgG” value (sheep IgG) was “only showed activity against horse and guinea pig IgG; also recorded: no visible effect” and the “Activity towards mouse IgG2a” value (mouse IgG2a) was “active”. For the same molecule, the “Activity towards mouse IgG2a” value (mouse IgG2a; listed as IdeSork2.0) was “could be hydrolyzed”, the “Activity against denatured and reduced IgG” value [1] was “not active” and the “Activity on rat IgG” value (rat IgG) was “only showed activity against horse and guinea pig IgG; also recorded: no visible effect”. The “Hydrolysis of IgG over time at varying substrate amounts” value (IgG [2]; 5-40 μg substrate to 1 μg enzyme, 30, 60 and 120 min) was “Almost all IgG is hydrolyzed within 30 minutes”, the “Hydrolysis of IgG” value (IgG [2]; ratio 1:40, 30-60 minutes) was greater than 95% and the “Activity towards human IgA” value (human IgA) was “not active”. For the same molecule, the “Activity towards human IgA” value (human IgA; listed as IdeSork2.0) was “not affected”, the “Number and position of hydrolytic sites” value [3] was “only a single hydrolytic site was detected” and the “Number and position of hydrolytic sites” value ([3]; listed as IdeSork2.0) was “only observed at a single site in the hinge region”. The NaCl optimum (IgG [4]) was 0 mM, the “NaCl tolerated without a significant drop in activity” value (IgG [4]) was “up to 200 mM” and the “Requirement for co-factors or reducing agents” value (IgG [4]) was “no requirement for co-factors or reducing agents”. For the same molecule, the “pH in which highly active” value (IgG [4]) was 7.0-8.5, the pH optimum (IgG [4]) was 7.5 and the “Effect of temperature on activity” value (IgG [4]; 37° C. versus room temperature) was “improved when incubated at 37 °C as compared to room temperature”. The NaCl range (IgG [4]; >90% activity) was 0 to 200 mM, the pH range (IgG [4]; >90% activity) was 6.5-8.5 and the “Activity on cow IgG” value (cow IgG) was “only showed activity against horse and guinea pig IgG”. For the same molecule, the “Activity on pig (porcine) IgG” value (pig IgG) was “only showed activity against horse and guinea pig IgG; also recorded: no visible effect”, the “Activity on dog IgG” value (dog IgG) was “only showed activity against horse and guinea pig IgG; also recorded: no visible effect” and the “Activity towards mouse IgG1” value (mouse IgG1) was “not affected”.

— patent US20250320480A1, “Immunoglobulin Cleaving Enzyme” (priority 2021, published 2025)
